Source: article PMC4283134, “Nup98 FG domains from diverse species spontaneously phase-separate into particles with nuclear pore-like permselectivity” (eLife, 2015)

Tests used:
[1] = biological target: Tetrahymena thermophila macronuclear MacNup98A FG domain (Tetrahymena thermophila); experiment: dynamic light scattering; FG domain diluted from stocks in 2 M GuHCl into TBS (50 mM Tris/HCl pH 7.5, 150 mM NaCl) to 10-0.06 µM; critical concentration of phase separation from the lowest concentration with particles, refined by the monomers that co-exist with particles
[2] = biological target: Dictyostelium discoideum Nup220 FG domain (Dictyostelium discoideum); experiment: as above
[3] = biological target: Branchiostoma floridae Nup98 FG domain (Branchiostoma floridae); experiment: as above
[4] = biological target: Branchiostoma floridae Nup98 FG domain, O-GlcNAc modified (Branchiostoma floridae); experiment: as above
[5] = biological target: Saccharomyces cerevisiae Nup100 FG domain (residues 1-580, FG bodies formed in E. coli) (S. cerevisiae) (UniProt Q02629); experiment: partitioning into FG bodies or inclusion bodies (confocal laser-scanning microscopy); crude FG bodies or actin inclusion bodies from E. coli, washed twice in TBS; 1 µM Impβ•IBB-GFP and MBP-mCherry added
[6] = biological target: Saccharomyces cerevisiae Nup116 FG domain (residues 1-736, FG bodies formed in E. coli) (S. cerevisiae) (UniProt Q02630); experiment: as above
[7] = biological target: Saccharomyces cerevisiae Nup100 FG domain (residues 2-580, purified) (S. cerevisiae) (UniProt Q02629); experiment: partitioning into FG particles (confocal laser-scanning microscopy); FG particles formed from 5 or 10 µM purified FG domain (with labelled tracer) by dilution from GuHCl into TBS; 1 µM fluorescent NTR or NTR⋅cargo complex or 3 µM passive probe added; images about 2-3 min later
[8] = biological target: Trypanosoma brucei Nup158 FG domain (Trypanosoma brucei); experiment: dynamic light scattering; FG domain diluted from stocks in 2 M GuHCl into TBS (50 mM Tris/HCl pH 7.5, 150 mM NaCl) to 10-0.06 µM; critical concentration of phase separation from the lowest concentration with particles, refined by the monomers that co-exist with particles
human Importin β = biological target: T1, human Importin β (human, UniProt Q14974 1-876); experiment: pull-down; His-tagged FG domains (30 µg each) immobilised on 30 µl PEG-passivated Ni(II) chelate beads; 1 µM untagged human Importin β (400 µl), 2 hr at 4°C; 25 mM Tris/HCl pH 7.5, 100 mM NaCl, 1 mM MgCl2, 0.5% PEG4000, 5 mM DTT; SDS-PAGE/Coomassie; settings: both partners purified
T1 construct: Importin β, human; also called HsImpβ; pICH005; source: E. coli (BLR or NEB Express), purified (native Ni(II) chelate chromatography, tag removed); not shown: His14, N-terminal, cleaved; scSUMO, N-terminal, cleaved
T1 sequence (Q14974 whole entry, the tested form may be a part): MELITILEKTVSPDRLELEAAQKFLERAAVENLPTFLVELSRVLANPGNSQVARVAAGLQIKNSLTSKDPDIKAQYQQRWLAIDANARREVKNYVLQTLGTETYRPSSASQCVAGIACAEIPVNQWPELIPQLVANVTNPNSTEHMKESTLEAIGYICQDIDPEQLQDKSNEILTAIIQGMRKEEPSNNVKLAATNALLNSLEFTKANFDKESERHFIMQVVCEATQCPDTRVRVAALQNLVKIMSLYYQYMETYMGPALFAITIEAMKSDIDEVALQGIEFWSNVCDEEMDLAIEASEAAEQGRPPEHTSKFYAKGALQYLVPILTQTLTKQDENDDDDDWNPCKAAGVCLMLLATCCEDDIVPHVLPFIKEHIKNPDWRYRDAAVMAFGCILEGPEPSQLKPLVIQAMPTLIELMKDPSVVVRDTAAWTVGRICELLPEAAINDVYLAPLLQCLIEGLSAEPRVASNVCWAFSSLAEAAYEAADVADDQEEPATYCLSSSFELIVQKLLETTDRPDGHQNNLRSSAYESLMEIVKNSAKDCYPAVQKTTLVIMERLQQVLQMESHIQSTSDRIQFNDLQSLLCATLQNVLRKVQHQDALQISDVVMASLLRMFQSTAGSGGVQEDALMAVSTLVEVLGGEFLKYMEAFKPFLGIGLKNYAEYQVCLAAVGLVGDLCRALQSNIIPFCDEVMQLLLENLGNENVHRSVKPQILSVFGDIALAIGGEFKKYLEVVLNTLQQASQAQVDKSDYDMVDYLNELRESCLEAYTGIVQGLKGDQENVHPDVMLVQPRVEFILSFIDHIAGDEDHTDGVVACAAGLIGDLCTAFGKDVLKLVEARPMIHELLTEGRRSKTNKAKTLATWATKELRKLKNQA

[9] = biological target: the molecule itself; experiment: dynamic light scattering; FG domain diluted from stocks in 2 M GuHCl into TBS (50 mM Tris/HCl pH 7.5, 150 mM NaCl) to 10-0.06 µM; critical concentration of phase separation from the lowest concentration with particles, refined by the monomers that co-exist with particles

Question: With “Tetrahymena thermophila macronuclear MacNup98A FG domain (domain or fragment)” as the molecule, how does the estimated critical concentration for phase separation (FG domain) [1] read?
Answer: 25 nM

Question: For “Dictyostelium discoideum Nup220 FG domain (domain or fragment)”, which estimated critical concentration for phase separation (FG domain) [2] is on record?
Answer: 125 nM

Question: With “Branchiostoma floridae Nup98 FG domain (domain or fragment)” as the molecule, how does the estimated critical concentration for phase separation (FG domain) [3] read?
Answer: 20 nM

Question: For “Branchiostoma floridae Nup98 FG domain, O-GlcNAc modified (domain or fragment)”, which estimated critical concentration for phase separation (FG domain) [4] is on record?
Answer: 150 nM

Question: For “Importin β⋅IBB-GFP complex (from UniProt Q06142 1-861; Q02821 2-63)”, which particle:buffer partition coefficient [5] is on record?
Answer: 200

Question: And the particle:buffer partition coefficient [6]?
Answer: 200

Question: And the particle:buffer partition coefficient [7]?
Answer: 220

Question: For MBP-mCherry fusion, which particle:buffer partition coefficient [7] is on record?
Answer: < 0.1

Question: For “Trypanosoma brucei Nup158 FG domain (domain or fragment)”, which estimated critical concentration for phase separation (FG domain) [8] is on record?
Answer: 300 nM

B1: Arabidopsis thaliana Nup98B FG domain (domain or fragment)
chain: MFGSSNNNPFGQSSISSPFGTQTHSLFGQTNNNASNNPFATKPFGTSTPFGAQTGSSMFGGTSTGVFGAPQTSSPFGASPQAFGSSTQAFGASSTPSFGSSNSPFGGTSTFGQKSFGLSTPQSSPFGSTTQQSQPAFGNSTFGSSTPFGASTTPAFGASSTPAFGVSNTSGFGATNTPGFGATNTTGFGGSSTPGFGASSTPAFGSTNTPAFGASSTPLFGSSSSPAFGASPAPAFGSSGNAFGNNTFSSGGAFGSSSTPTFGASNTSAFGASSSPSFNFGSSPAFGQSTSAFGSSSFGSTQSSLGSTPSPFGAQGAQASTSTFGGQSTIGGQQGGSRVIPYAPTTDTASGTESKSERLQSISAMPAHKGKNMEELRWEDYQRGDKGGQRSTGQSPEGAGFGVTNSQPSIFSTSPAFSQTPVNPTNPFSQTTPTSNTNFSPSFSQPTTPSFGQPTTPSFRSTVSNTTSVFGSSSSLTTNTSQPLGSSIFGSTPAHGSTPGFSIGGFNNSQSSPLFGSNPSFAQNTTPAFSQTSPLFGQNTTPALGQSSSVFGQNTNPALVQSNTFSTPSTGFGNTFSSSSSLTTSISPFGQITPAVTPFQSAQPTQPLGAFGFNNFGQTQIANTTDIAGAMGTFSQGNFKQQPALGNSAVMQPTPVTNPFGTLPALPQC
notes: Nup98B FG domain, Arabidopsis thaliana, residues 1-668; engineered C-terminal cysteine; In particle assays a few percent of the molecules carried a fluorescent tracer label; also called AtNup98B FG; AtNup98B; source: E. coli (BLR or NEB Express), purified (Ni(II) chelate, denaturing conditions); not shown: His14 (with TEV site), N-terminal, kept
Question: Does B1 bind (human Importin β)?
Answer: binds

Question: What about the “estimated critical concentration for phase separation (FG domain)” value (shortened to “estimated critical concentration”) [9] of the same molecule?
Answer: ~25 nM

B2: Saccharomyces cerevisiae Nup100 FG domain (residues 2-580, purified) (domain or fragment, S. cerevisiae)
chain: FGNNRPMFGGSNLSFGSNTSSFGGQQSQQPNSLFGNSNNNNNSTSNNAQSGFGGFTSAAGSNSNSLFGNNNTQNNGAFGQSMGATQNSPFGSLNSSNASNGNTFGGSSSMGSFGGNTNNAFNNNSNSTNSPFGFNKPNTGGTLFGSQNNNSAGTSSLFGGQSTSTTGTFGNTGSSFGTGLNGNGSNIFGAGNNSQSNTTGSLFGNQQSSAFGTNNQQGSLFGQQSQNTNNAFGNQNQLGGSSFGSKPVGSGSLFGQSNNTLGNTTNNRNGLFGQMNSSNQGSSNSGLFGQNSMNSSTQGVFGQNNNQMQINGNNNNSLFGKANTFSNSASGGLFGQNNQQQGSGLFGQNSQTSGSSGLFGQNNQKQPNTFTQSNTGIGLFGQNNNQQQQSTGLFGAKPAGTTGSLFGGNSSTQPNSLFGTTNVPTSNTQSQQGNSLFGATKLTNMPFGGNPTANQSGSGNSLFGTKPASTTGSLFGNNTASTTVPSTNGLFGNNANNSTSTTNTGLFGAKPDSQSKPALGGGLFGNSNSNSSTIGQNKPVFGGTTQNTGLFGATGTNSSAVGSTGKLFGQNNNTLNVGTC
notes: Nup100 FG domain, S. cerevisiae, residues 2-580; engineered C-terminal cysteine; In particle assays a few percent of the molecules carried a label (Atto390, Atto488 or Alexa488); also called ScNup100 FG; ScNup100; source: E. coli (BLR or NEB Express), purified (Ni(II) chelate, denaturing conditions); not shown: His18, N-terminal, kept
Question: Does B2 bind (human Importin β)?
Answer: binds

Question: What about the “estimated critical concentration” value [9] of the same molecule?
Answer: ~175 nM

B3: Caenorhabditis elegans NPP-10/Nup98 FG domain (domain or fragment)
chain: MFGQNKSFGSSSFGGGSSGSGLFGQNNQNNQNKGLFGQPANNSGTTGLFGAAQNKPAGSIFGAASNTSSIFGSPQQPQNNQSSLFGGGQNNANRSIFGSTSSAAPASSSLFGNNANNTGTSSIFGSNNNAPSGGGLFGASTVSGTTVKFEPPISSDTMMRNGTTQTISTKHMCISAMSKYDGKSIEELRVEDYIANRKAPGTGTTSTGGGLFGASNTTNQAGSSGLFGSSNAQQKTSLFGGASTSSPFGGNTSTANTGSSLFGNNNANTSAASGSLFGAKPAGSSLFGSTATTGASTFGQTTGSSLFGNQQPQTNTGGSLFGNTQNQNQSGSLFGNTGTTGTGLFGQAQQQPQQQSSGFSFGGAPAATNAFGQPAAANTGGSLFGNTSTANTGSSLFGAKPATSTGFTFGATQPTTTNAFGSTNTGGGLFGNNAAKPGGLFGNTTNTGTGGGLFGSQPQASSGGLFGSNTQATQPLNTGFGNLAQPQIVMQQQC
notes: NPP-10/Nup98 FG domain, Caenorhabditis elegans, residues 1-493; engineered C-terminal cysteine; In particle assays a few percent of the molecules carried a fluorescent tracer label; also called CeNup98 FG; CeNup98; source: E. coli (BLR or NEB Express), purified (Ni(II) chelate, denaturing conditions); not shown: His18, N-terminal, kept
Question: Does B3 bind (human Importin β)?
Answer: binds

Question: And the “estimated critical concentration” value [9]?
Answer: ~700 nM

B4: Saccharomyces cerevisiae Nup116 FG domain without the GLEBS domain (domain or fragment, S. cerevisiae)
chain: FGVSRGAFPSATTQPFGSTGSTFGGQQQQQQPVANTSAFGLSQQTNTTQAPAFGNFGNQTSNSPFGMSGSTTANGTPFGQSQLTNNNASGSIFGGMGNNTALSAGSASFGTSQNGTGTTFNNPQGTTNTGFGIMGNNNSTTSATTGGLFGQKPATGMFGTGTGSGGGFGSGATNSTGLFGSSTNLSGNSAFGANKPATSGGLFGNTTNNPTNGTNNTGLFGQQNSNTNGGLFGQQQNSFGANNVSNGGAFGQVNRGAFPQQQTQQGSGGIFGQSNANANGGAFGQQQGTGALFGAKPASGGLFGQSAGSKAFGMNTNPTGTTGGLFGQTNQQQSGGGLFGQQQNSNAGGLFGQNNQSQNQSGLFGQQNSSNAFGQPQQQGGLFGSKPAGGLFGQQQGASTFASGNAQNNSIFGQNNQQQQSTGGLFGQQNNQSQSQPGGLFGQTNQNNNQPFGQNGLQQPQQNNSLFGAKPTGFGNTSLFSNSTTNQSNGISGNNLQQQSGGLFQNKQQPASGGLFGSKPSNTVGGGLFGNNQVANQNNPASTSGGLFGSKPATGSLFGGTNSTAPNASSGGIFGSNNASNTAATTNSTGLFGNKPVGAGASTSAGGLFGNNNNSSLNNSNGSTGLFGSNNTSQSTNAGGLFQNNTSTNTSGGGLFSC
notes: Nup116 FG domain, S. cerevisiae, residues 2-109 joined to 167-715 (GLEBS domain deleted); engineered C-terminal cysteine; In particle assays a few percent of the molecules carried a fluorescent tracer label; also called ScNup116_(ΔGLEBS) FG; ScNup116; source: E. coli (BLR or NEB Express), purified (Ni(II) chelate, denaturing conditions); not shown: His18, N-terminal, kept
Question: How did the “estimated critical concentration” value [9] turn out when B4 was run?
Answer: ~700 nM

B5: Drosophila melanogaster Nup98 FG domain (domain or fragment)
chain: MFGGAKPSFGATPAATSFGGFSGTTTTTPFGQSAFGKPAAPAFGNTSTFAAQPAQQSLFGAAATPAQPAGGLFGANTSTGFGSTATAQPTAFGAFSQPQQTSNIFGSTQTAASTSLFGQSTLPAFGAAKPTMTAFGQTAAAQPTGSLFGQPAAATSTTGFGGFGTSAPTTTNVFGSGTASAFAQPQATAVGASGVNTGTAVAKYQPTIGTDTLMKSGQANSVNTKQHCITAMKEFEGKSLEELRLEDYMCGRKGPQAGNAPGAFGFGAQVTQPAQPASGGLFGSTAQPSTGLFGQTVTENKSMFGTTAFGQQPATNNAFGAATQQNNFLQKPFGATTTTPFAAPAADASNPFGAKPAFGQGGSLFGQAPATSAAPAFGQTNTGFGGFGTTAGATQQSTLFGATPAADPNKSAFGLGTAASAATTGFGFGAPATSTAGGGLFGNKPATSFAAPTFGATSTASTPFSNFGLNTSTAATGGGLFNSGLNKPATSGFGGFGATSAAPLNFNAGNTGGSLFGNTAKPGGGLFGGGTTTLGGTGAAPTGGLFGGGTTSFGGVGGSLGGGGFGMGTNNSLTGGIMGAC
notes: Nup98 FG domain, Drosophila melanogaster, residues 1-580; engineered C-terminal cysteine; In particle assays a few percent of the molecules carried a fluorescent tracer label; also called DmNup98 FG; DmNup98; source: E. coli (BLR or NEB Express), purified (Ni(II) chelate, denaturing conditions); not shown: His18, N-terminal, kept
Question: Which results are given for B5?
Answer: binding result (human Importin β): binds; estimated critical concentration for phase separation (FG domain) [9]: ~200 nM

B6: Homo sapiens Nup98 FG domain (domain or fragment, human)
chain: MFNKSFGTPFGGGTGGFGTTSTFGQNTGFGTTSGGAFGTSAFGSSNNTGGLFGNSQTKPGGLFGTSSFSQPATSTSTGFGFGTSTGTANTLFGTASTGTSLFSSQNNAFAQNKPTGFGNFGTSTSSGGLFGTTNTTSNPFGSTSGSLFGPSSFTAAPTGTTIKFNPPTGTDTMVKAGVSTNISTKHQCITAMKEYESKSLEELRLEDYQANRKGPQNQVGAGTTTGLFGSSPATSSATGLFSSSTTNSGFAYGQNKTAFGTSTTGFGTNPGGLFGQQNQQTTSLFSKPFGQATTTQNTGFSFGNTSTIGQPSTNTMGLFGVTQASQPGGLFGTATNTSTGTAFGTGTGLFGQTNTGFGAVGSTLFGNNKLTTFGSSTTSAPSFGTTSGGLFGNKPTLTLGTNTNTSNFGFGTNTSGNSIFGSKPAPGTLGTGLGAGFGTALGAGQASLFGNNQPKIGGPLGTGAFGAPGFNTTTATLGFGAPQAPVALTDPNASAAQQAC
notes: Nup98 FG domain, human, residues 1-499; engineered C-terminal cysteine; In particle assays a few percent of the molecules carried a fluorescent tracer label; also called HsNup98 FG; HsNup98; source: E. coli (BLR or NEB Express), purified (Ni(II) chelate, denaturing conditions); not shown: His18, N-terminal, kept
Question: Does B6 bind (human Importin β)?
Answer: binds

Question: What about the “estimated critical concentration” value [9] of the same molecule?
Answer: ~25 nM
